Test results taken from patent publication US20110280883A1 (SAMSUNG ELECTRONICS, published 2011).

Molecular target: T1, EGFR on A431 cell line (overexpresses EGFR) (UniProt P00533 25-1210)
T1 construct: whole, on cells; also called A431 cells; cells overexpressing EGFR
Experiment: cell ELISA on A431 cells attached to the plate, antibody titrated
Method: Binding capacity between the antibody obtained in 5 and the A431 cell line (ATCC) which overexpresses EGFR is determined by ELISA [Biological efficacy of a chimeric antibody to the epidermal growth factor receptor in a human tumor xenograft model, Clinic. Cancer res., 1995, vol. 1, 1311-1318] (the entire contents of which are incorporated herein by reference). The protocol for the ELISA assay is similar to that described in 6 above, except that antibody was used over a range of concentration and A431 cells were attached to the plate.

Kd: 1.09 nM
B1: Erbb1 78 clone antibody (fully human full-length IgG) (antibody, V domains shown)
VH: QMQLVQSGGGVVRPGGSLRLSCAASGFTFDDYGMSWVRQAPGKGLEWVSGINWNGGSTGYADSVKGRFTISRDNAKNSLYLQMNSLRAEDTAVYYCARDYWGSLDYWGQGTLITVSS
VL: QSALTQPASVSGSPGQSITISCTGTSSDVGGYNYVSWYQQNSGKAPKLMIHDVNRRPSGVSNRFSGSKSGNTASLTIAGLQADDEADYYCSSYVSTNTYVFGTGTKVTVL
notes: also called Erbb1-78 antibody
